T1: human TL1A (HuTL1A) (human, UniProt O95150 57-251, limits assumed, biotin-labelled in some assays (site not stated))
T1 construct: Expressed in EXPI-293 cells and purified by Ni-NTA (His-tag); Described as a trimeric antigen; also called TL1A antigen; WT
T1 sequence: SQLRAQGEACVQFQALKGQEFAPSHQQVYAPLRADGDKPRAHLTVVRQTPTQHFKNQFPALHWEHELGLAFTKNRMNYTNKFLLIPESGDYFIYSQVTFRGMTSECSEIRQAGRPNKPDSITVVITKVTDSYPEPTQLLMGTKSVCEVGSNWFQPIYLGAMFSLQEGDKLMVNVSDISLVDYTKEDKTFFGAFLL

T2: LT-α (UniProt P01374 35-205)
T2 sequence (looked up): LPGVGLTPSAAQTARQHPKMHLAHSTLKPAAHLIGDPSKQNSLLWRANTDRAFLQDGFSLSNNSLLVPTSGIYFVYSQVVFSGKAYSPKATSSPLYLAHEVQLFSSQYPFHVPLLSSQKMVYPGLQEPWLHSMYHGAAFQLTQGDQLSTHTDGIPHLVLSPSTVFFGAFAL

T3: FASL (UniProt P48023 134-281, limits assumed)
T3 sequence (looked up): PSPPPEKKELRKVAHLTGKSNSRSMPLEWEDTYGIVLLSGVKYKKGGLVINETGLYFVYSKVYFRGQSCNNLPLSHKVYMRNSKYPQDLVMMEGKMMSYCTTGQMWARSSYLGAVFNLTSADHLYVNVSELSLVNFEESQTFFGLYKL

B1: M701-3966 (antibody, human IgG1, kappa, L234A L235A, V domains shown)
VH: ELQLQESGPGLVKPSETLSLTCAVSGVSFSDYHWAWIRQPPGKGLEWIGDINHRGHTNYNPSLKSRVTVSIDTSKNQFSLKLSSVTAADTAVYFCARDFPNFIFDYWGQGTLVTVSS
VL: DIQLTQSPGTLSLSPGERATLSCRASQSVSSYLAWYQQKPGQAPRLLIYGASKRATGIPDRFSGSGSGTDFTLTISRLEPEDFAVYYCQQYGDSPLTFGQGTKVEIKR
notes: Fc-engineered IgG1
B2: M701-4007 (antibody, human IgG1, kappa, L234A L235A, V domains shown)
VH: ELQLQESGPGLVKPSETLSLTCAVSGVSFSDYHWAWIRQPPGKGLEWIGDINHRGHTNYNPSLKSRVTVSIDTSKNQFSLKLSSVTAADTAVYFCARDFPNFIFDFWGQGTLVTVSS
VL: DIQLTQSPGTLSLSPGERATLSCRASQSVSTYLAWYQQKPGQAPRLLIYGASKRATGIPDRFSGSGSGTDFTLTISRLEPEDFAVYYCQQYGDSPLTFGQGTKVEIKR
notes: Fc-engineered IgG1

What was measured:
[1] = target: T1, human TL1A (HuTL1A); assay: ELISA: biotin-HuTL1A on streptavidin plate, antibody diluted at pH 7.4, HRP-anti-human Fc, OD450
[2] = target: T4, LIGHT (UniProt O43557 74-240, limits assumed); assay: ELISA, coated LIGHT, Ab 0.000 nM (blank)
Protocol: (§1) In this experiment, ELISA was used to assess the binding ability of monoclonal antibodies to TL1A homologous molecules. Representative members of the TNF ligand superfamily, TNFα, LT-α, LIGHT and FASL, were selected for binding testing. 1 μg/mL of TNFα, LT-α, LIGHT or FASL was coated in a microplate with a carbonate buffer solution at pH=9.6, 100 μL per well, and the microplate was incubated at 4° C. overnight. The microplate was then washed 5 times with PBST, blocked with 300 μL/well of PBS containing 1% BSA, and was incubated at room temperature for 1 hour. After washing 5 times with PBST, about 100 μL each of the M701 monoclonal antibodies and the control antibodies were added to each well, and were incubated at room temperature for 1 hour. After washing 5 times with PBST, 100 μL of HRP-anti-human Fc (Sino Biological) was added to each well, and was incubated at room temperature for 1 hour. After washing 5 times with PBST, 100 μL of colorimetric substrate TMB was added to each well, and color was developed at room temperature for 10 minutes, followed by addition of 1M sulfuric acid to terminate the reaction. OD450 nm was recorded on a microplate reader.

[3] = target: T2, LT-α; assay: ELISA, coated LT-α, Ab 0.391 nM
Protocol: as §1

[4] = target: T5, TNFα (UniProt P01375 77-233); assay: ELISA, coated TNFα
Protocol: as §1

[5] = target: T5, TNFα; assay: ELISA, coated TNF-α, Ab 1.563 nM
Protocol: as §1

[6] = target: T1, human TL1A (HuTL1A); assay: cell-based or functional assay
[7] = target: T5, TNFα; assay: ELISA, coated TNF-α, Ab 6.25 nM
Protocol: as §1

[8] = target: T4, LIGHT; assay: ELISA, coated LIGHT, Ab 100 nM
Protocol: as §1

[9] = target: T5, TNFα; assay: ELISA, coated TNF-α, Ab 0.000 nM (blank)
Protocol: as §1

[10] = target: T3, FASL; assay: ELISA, coated FASL, Ab 0.391 nM
Protocol: as §1

[11] = target: T2, LT-α; assay: ELISA, coated LT-α, Ab 6.25 nM
Protocol: as §1

[12] = target: T3, FASL; assay: ELISA, coated FASL, Ab 6.25 nM
Protocol: as §1

[13] = target: T2, LT-α; assay: ELISA, coated LT-α
Protocol: as §1

[14] = target: T2, LT-α; assay: ELISA, coated LT-α, Ab 100 nM
Protocol: as §1

[15] = target: T2, LT-α; assay: ELISA, coated LT-α, Ab 25 nM
Protocol: as §1

[16] = target: T4, LIGHT; assay: ELISA, coated LIGHT, Ab 0.391 nM
Protocol: as §1

[17] = target: T4, LIGHT; assay: ELISA, coated LIGHT, Ab 25 nM
Protocol: as §1

[18] = target: T5, TNFα; assay: ELISA, coated TNF-α, Ab 25 nM
Protocol: as §1

[19] = target: T5, TNFα; assay: ELISA, coated TNF-α, Ab 0.391 nM
Protocol: as §1

[20] = target: T3, FASL; assay: ELISA, coated FASL
Protocol: as §1

[21] = target: T3, FASL; assay: ELISA, coated FASL, Ab 1.563 nM
Protocol: as §1

T4 sequence (O43557 74-240 limits assumed): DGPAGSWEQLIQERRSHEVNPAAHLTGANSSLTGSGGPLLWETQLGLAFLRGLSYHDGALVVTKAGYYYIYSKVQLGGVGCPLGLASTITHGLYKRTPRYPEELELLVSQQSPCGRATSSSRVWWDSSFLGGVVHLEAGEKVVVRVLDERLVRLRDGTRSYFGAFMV
T5 sequence (P01375 77-233 limits assumed): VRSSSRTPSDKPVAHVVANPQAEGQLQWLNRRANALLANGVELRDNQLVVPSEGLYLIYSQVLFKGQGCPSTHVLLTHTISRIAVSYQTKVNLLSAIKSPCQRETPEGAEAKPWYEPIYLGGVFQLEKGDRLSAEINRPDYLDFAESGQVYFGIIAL

| Binder | EC50 (read off the curve) [1] [nM] | OD450 nm [2] | OD450 nm [3] | binding result [4] | OD450 nm [5] | IC50 (read off the curve); SEAP reporter in HEK293T/DR3-NFκB cells with soluble TL1A, OD655 [6] [nM] | OD450 nm [7] | OD450 nm [8] | OD450 nm [9] | OD450 nm [10] | OD450 nm [11] | OD450 nm [12] | binding result [13] | OD450 nm [14] | OD450 nm [15] | OD450 nm [16] | OD450 nm [17] | OD450 nm [18] | OD450 nm [19] | binding result [20] | other results |
| --- | --- | --- | --- | --- | --- | --- | --- | --- | --- | --- | --- | --- | --- | --- | --- | --- | --- | --- | --- | --- | --- |
| B1 | ~0.1 | 0.06 | 0.0604 | no binding (tested: 100 nM) | 0.0528 | ~1 | 0.0511 | 0.0876 | 0.0706 | 0.0504 | 0.06 | 0.0525 | no binding (tested: 100 nM) | 0.0709 | 0.0639 | 0.0558 | 0.0674 | 0.0593 | 0.0517 | no binding (tested: 100 nM) | OD450 nm [21]: 0.0522 |
| B2 | ~0.1 | 0.0568 | 0.0576 | no binding (tested: 100 nM) | 0.0588 | ~1 | 0.0553 | 0.0853 | 0.0762 | 0.0504 | 0.0588 | 0.0523 | no binding (tested: 100 nM) | 0.0706 | 0.0628 | 0.0534 | 0.063 | 0.0665 | 0.0557 | no binding (tested: 100 nM) | OD450 nm [21]: 0.06 |

Reference: patent publication US20250313644A1 (FUTUREGEN BIOPHARMACEUTICAL BEIJING, published 2025)
